From patent US20190263896A1 (UNIVERSITY OF ZURICH, published 2019)

How the values were obtained:
[1] = target: T1, artificial amyloid fibrils prepared from synthetic Abeta1-42 peptides (UniProt P05067 672-713); test: ELISA, fibrillar Abeta1-42 coated on the plate, antibody 0.1pM to 100nM [right panel]
T1 construct: domain: Abeta1-42; Fibrillar assembly of many copies; also called Abeta1-42 fibrils; synthetic Abeta fibrils

[2] = target: T2, synthetic Abeta1-42 peptide (UniProt P05067 672-713); test: ELISA, synthetic Abeta1-42 peptide coated on the plate
T2 construct: domain: Abeta1-42; also called linear synthetic Abeta1-42 monomers

[3] = target: T3, monomeric synthetic Abeta (UniProt P05067 672-713); test: ELISA, monomeric synthetic Abeta coated on the plate, antibody titrated
T3 construct: also called monomeric Abeta; linear monomeric Abeta peptide

[4] = target: T4, recombinant human NI-101.11 antibody; test: competition ELISA: NI-101.11 (1nM) pre-incubated with the peptide at 10 nM to 10 µM, then binding to the coated plate (the coat is not named) [right panel]
T4 construct: also called human antibody against brain beta-amyloid

B1: recombinant human antibody NI-101.13A (antibody, V domains shown)
VH: QVQLQESGPGLVKPSETLSLTCTVSGGSISRRSYYWGWIRQSPGKGLEWSGSIHYSGSTYYNPSLKSRVTISVDTSKNQFSLKLSSVTAADTAVYYCARSRWGSSWVFDYWGQGTLVTVSS
VL: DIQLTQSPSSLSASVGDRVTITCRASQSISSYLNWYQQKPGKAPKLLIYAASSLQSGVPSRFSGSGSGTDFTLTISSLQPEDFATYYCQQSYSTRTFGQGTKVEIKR
B1: binds [1].

B2: recombinant human antibody NI-101.13B (antibody, V domains shown)
VH: B1 VH
VL: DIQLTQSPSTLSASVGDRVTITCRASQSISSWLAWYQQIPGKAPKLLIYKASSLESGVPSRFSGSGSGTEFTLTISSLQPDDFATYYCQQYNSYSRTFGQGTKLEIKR
B2: binds [1].

B3: recombinant NI-101.12 (antibody, V domains shown)
VH: EVQLVESGPGLVKPAETLSLTCTVSGGSIRSGSICWYWIRQPPGKGLEWIGYFCYSGATFYTPSLRGRLTISVDASKNQLSLSLSSVTAADTAVYYCARRAGENSGGIEPYYGMDVWGQGTTVTVSS
VL: EIVLTQSPSSLSASIGDRVTITCRASESINKYVNWYQQKPGKAPKLLIYAASSLQSGAPSRVSGSGFGRDFSLTISGLQAEDFGAYFCQQSYSAPYTFGQGTKVEIKR
B3: binds [2].

B4: control antibody 22C4 (antibody, V domains shown)
VH: QVQLQQSGPELVKPGASVKISCKTSGYTFTEYTMHWVKQSHGKSLEWIGGVNPYNDNTSYIRKLQGKVTLTVDRSSSTAYMELRSLTSEDSAVYFCARYGGLRPYYFPMDFWGQGTSVTVSS
VL: DIVLTQSPAILSASPGEKVTLTCRASSSVNYMHWYQQKPGSPPKAWIYATSNLASGVPDRFSASGSGTSYSLTISRVEAEDAATYYCQQWRTNPPTFGAGTKLELK
With B4 the “EC50 (read off the curve)” value [3] was about 1 nM.

B5: linear synthetic N-terminal Abeta-derived polypeptide representing positions 1 to 16 (peptide)
peptide: DAEFRHDSGYEVHHQK
notes: domain: Abeta1-16; the numbers count on the Abeta peptide; also called Abeta1-16; monomeric Abeta1-16
B5: no binding (tested: 10 µM) [4].
